Data published in patent publication US20150056162A1 (published 2015).

Tests used:
A6 = assay: SPR; kinetic
C3 [1] = assay: SPR; kinetic
C7 [2] = assay: SPR; kinetic
A7 = assay: SPR; kinetic
C10 [3] = assay: SPR; kinetic
C12 [4] = assay: SPR; kinetic
C9 [5] = assay: SPR; kinetic
C2 [6] = assay: SPR; kinetic
A8 = assay: SPR; kinetic
B6 [7] = assay: SPR; equilibrium
B6 [8] = assay: SPR; kinetic
C3 [9] = assay: SPR; equilibrium
C7 [10] = assay: SPR; equilibrium
C10 [11] = assay: SPR; equilibrium
C12 [12] = assay: SPR; equilibrium
C9 [13] = assay: SPR; equilibrium
C2 [14] = assay: SPR; equilibrium
IL-13Rα2, biotinylated [15] = biological target: T1, IL-13Rα2, biotinylated (human, UniProt Q14627 27-343, biotinylated (site not stated)); assay: SPR; kinetic
T1 chain: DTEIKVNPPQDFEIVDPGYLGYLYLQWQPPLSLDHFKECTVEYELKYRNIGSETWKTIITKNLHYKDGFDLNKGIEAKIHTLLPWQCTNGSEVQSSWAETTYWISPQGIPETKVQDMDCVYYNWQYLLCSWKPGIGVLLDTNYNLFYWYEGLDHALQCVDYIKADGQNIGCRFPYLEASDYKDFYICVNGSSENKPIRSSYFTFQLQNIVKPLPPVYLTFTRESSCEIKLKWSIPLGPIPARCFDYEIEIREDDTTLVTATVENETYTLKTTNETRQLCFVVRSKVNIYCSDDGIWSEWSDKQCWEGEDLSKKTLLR

IL-13Rα2, biotinylated [16] = biological target: T1, IL-13Rα2, biotinylated; assay: SPR; kinetic
IL-13Rα2, biotinylated [17] = biological target: T1, IL-13Rα2, biotinylated; assay: SPR; equilibrium

B1: IL-13Rα2 (receptor)
chain: DTEIKVNPPQDFEIVDPGYLGYLYLQWQPPLSLDHFKECTVEYELKYRNIGSETWKTIITKNLHYKDGFDLNKGIEAKIHTLLPWQCTNGSEVQSSWAETTYWISPQGIPETKVQDMDCVYYNWQYLLCSWKPGIGVLLDTNYNLFYWYEGLDHALQCVDYIKADGQNIGCRFPYLEASDYKDFYICVNGSSENKPIRSSYFTFQLQNIVKPLPPVYLTFTRESSCEIKLKWSIPLGPIPARCFDYEIEIREDDTTLVTATVENETYTLKTTNETRQLCFVVRSKVNIYCSDDGIWSEWSDKQCWEGEDLSKKTLLR
modifications: biotinylated (site not stated)
- Kd (A6): 0.267 nM
- Kd (C3 [1]): 0.379 nM
- Kd (C7 [2]): 0.272 nM
- Kd (A7): 0.218 nM
- Kd (C10 [3]): 5 nM
- Kd (C12 [4]): 0.053 nM
- Kd (C9 [5]): 0.259 nM
- Kd (C2 [6]): 0.025 nM
- Kd (A8): 0.263 nM
- Kd (B6 [7]): 53 nM

B2: IL-13Rα1 (receptor)
chain: GGGGAAPTETQPPVTNLSVSVENLCTVIWTWNPPEGASSNCSLWYFSHFGDKQDKKIAPETRRSIEVPLNERICLQVGSQCSTNESEKPSILVEKCISPPEGDPESAVTELQCIWHNLSYMKCSWLPGRNTSPDTNYTLYYWHRSLEKIHQCENIFREGQYFGCSFDLTKVKDSSFEQHSVQIMVKDNAGKIKPSFNIVPLTSRVKPDPPHIKNLSFHNDDLYVQWENPQNFISRCLFYEVEVNNSQTETHNVFYVQEAKCENPEFERNVENTSCFMVPGVLPDTLNTVRIRVKTNKLCYEDDKLWSNWSLNDIFEAQKIEWHEHHHHHH
modifications: biotin on the C-terminal biotin acceptor peptide (coexpressed with BirA ligase)
- Kd (A6): 1.9 nM
- Kd (B6 [8]): 5.9 nM
- Kd (A7): 1.18 nM
- Kd (A8): 2.06 nM
- Kd (C3 [9]): 16000 nM
- Kd (C7 [10]): 35000 nM
- Kd (C10 [11]): 264 nM
- Kd (C12 [12]): 15000 nM
- Kd (C9 [13]): 31000 nM
- Kd (C2 [14]): 4000 nM

B3: IL-13 variant DN (ligand)
chain: PGPVPPSTAVRALIEELINITQNQKAPLCNGSMVWSINRTAGMYCAALESLINVSGCSAIEKTQDMLSGFCPHKVSAGQFSSLHVRSSKIEVAQFVKDLLFHLRTLFREGQFNHHHHHH
- Kd (IL-13Rα2, biotinylated [15]): 0.391 nM

B4: IL-13 variant C11 (ligand)
chain: PGPVPPSTAHRELIEELVNITQNQKAPLCNGSMVWSINLTAGMYCAALESLINVSGCSAIEKTQRMLSGFCPHKVSAGQFSSLHVTGRKIEVAQFVKDLLLHLKKLFKEGQFNHHHHHH
- Kd (IL-13Rα2, biotinylated [16]): 0.0001 nM

B5: IL-13 variant D7 (ligand)
chain: PGPVPPSTAARELIEELFNITQNQKAPLCNGSMVWSINLTAGMYCAALESLINVSGCSAIEKTKRMLSGFCPHKVSAGQFPSLHVKKTRIEVAQFVKDLLIHLRKLFKEGQFNHHHHHH
- Kd (IL-13Rα2, biotinylated [16]): 0.003 nM

B6: IL-13 variant C4 (ligand)
chain: PGPVPPSTAVRELIEELVNITQNQKAPLCNGSMVWSINLTAGMYCAALESLINVSGCSAIEKTQRMLSGFCPHKVSAGQFSSLHVRDTRIEVAQFVKDLLNHLKELFTEGQFNHHHHHH
- Kd (IL-13Rα2, biotinylated [16]): 0.393 nM

B7: IL-13 variant B4 (ligand)
chain: PGPVPPSTALSELIEELINITQNQKAPLCNGSMVWSINPTAGMYCAALESLINVSGCSAIEKTQRMLSGFCPHKVAAGQFSSLHDKGSMIEVAQFVKDLLYHLRTLFREGQFNHHHHHH
- Kd (IL-13Rα2, biotinylated [17]): 108 nM

B8: IL-13 variant B2 (ligand)
chain: PGPVPPSTALRELIEELINITQNEKAPLCNGSMVWSINLTAGIYCAALESLINVSGCSAIEKTQRMLSGFCPHKVSAGQFSSLHVTGSKIEVAQFVKDLLYHLRALFREGQFNHHHHHH
- Kd (IL-13Rα2, biotinylated [16]): 1.5 nM

B9: IL-13 variant A5 (ligand)
chain: PGPVPPSTALIELIEELINITQNQKAPLCNGSMVWSINLTAGIYCAALESLINVSGCSAIEKTQRMLSGFCPHKVSAGQFSSLHVKGSKIEVAQFVKDLLHHLRALMREGQFNHHHHHH
- Kd (IL-13Rα2, biotinylated [17]): 50 nM

B10: IL-13 variant A11 (ligand)
chain: PGPVPPSTAVRELIEELINITQNQKAPLCNGSMVWSINRTAGMYCAALESLINVSGCSAIEKTQRMLSGFCPHKVSAGQFSSLHVRSSKIEVAQFVKDLLFHLRTLFREGQFNHHHHHH
- Kd (IL-13Rα2, biotinylated [16]): 0.391 nM
